One molecule from patent US20240034761A1, “REGENERATION OF MAMMALIAN TISSUES USING SYNTHETIC IMMODULINS” (priority 2022, published 2024) can be followed below.

Ends that are not written are not given here. * marks the point of attachment. Biotin = O=C1N[C@H]2[C@H](CS[C@H]2CCCCC(=O)*)N1

Experiment [1] concerns the target pure recombinant CD44 protein (Abcam). As to the kind of experiment: plate assay, pH 7.4, peptide pre-bound with 10 ug/well LMW-hyaluronan (CD44 capture through HA), anti-CD44 mAb/TMB detection.
Experiment [2] has the same target. The experiment is described as follows: plate assay, pH 5.2, peptide pre-bound with 10 ug/well LMW-hyaluronan (CD44 capture through HA), anti-CD44 mAb/TMB detection.
The target is the same in experiment [3]. The experiment is described as follows: plate assay, pH 5.2, peptide pre-bound with 1.5 ug/well HMW-hyaluronan (CD44 capture through HA), anti-CD44 mAb/TMB detection; reference set to 100.
The target is the same in experiment [4]. The experiment is described as follows: plate assay, biotin-peptide on streptavidin plate, pH 5.2, no hyaluronan (CONTROL), 100 ng/well CD44, anti-CD44 mAb/TMB detection.
Experiment [5] shares this target. As to the kind of experiment: plate assay, biotin-peptide on streptavidin plate, pH 7.4, no hyaluronan (CONTROL), 100 ng/well CD44, anti-CD44 mAb/TMB detection.
Experiment [6] has the same target. As to the kind of experiment: plate assay, pH 5.2, peptide pre-bound with 10 ug/well HMW-hyaluronan (CD44 capture through HA), anti-CD44 mAb/TMB detection.
For experiment [7] the target is unchanged. As to the kind of experiment: plate assay, pH 7.4, peptide pre-bound with 1.5 ug/well HMW-hyaluronan (CD44 capture through HA), anti-CD44 mAb/TMB detection; reference set to 100.
Experiment [8] has the same target. The experiment is described as follows: plate assay, pH 7.4, peptide pre-bound with 10 ug/well HMW-hyaluronan (CD44 capture through HA), anti-CD44 mAb/TMB detection.

Chain of pure recombinant CD44 protein (Abcam) (P16070 whole entry): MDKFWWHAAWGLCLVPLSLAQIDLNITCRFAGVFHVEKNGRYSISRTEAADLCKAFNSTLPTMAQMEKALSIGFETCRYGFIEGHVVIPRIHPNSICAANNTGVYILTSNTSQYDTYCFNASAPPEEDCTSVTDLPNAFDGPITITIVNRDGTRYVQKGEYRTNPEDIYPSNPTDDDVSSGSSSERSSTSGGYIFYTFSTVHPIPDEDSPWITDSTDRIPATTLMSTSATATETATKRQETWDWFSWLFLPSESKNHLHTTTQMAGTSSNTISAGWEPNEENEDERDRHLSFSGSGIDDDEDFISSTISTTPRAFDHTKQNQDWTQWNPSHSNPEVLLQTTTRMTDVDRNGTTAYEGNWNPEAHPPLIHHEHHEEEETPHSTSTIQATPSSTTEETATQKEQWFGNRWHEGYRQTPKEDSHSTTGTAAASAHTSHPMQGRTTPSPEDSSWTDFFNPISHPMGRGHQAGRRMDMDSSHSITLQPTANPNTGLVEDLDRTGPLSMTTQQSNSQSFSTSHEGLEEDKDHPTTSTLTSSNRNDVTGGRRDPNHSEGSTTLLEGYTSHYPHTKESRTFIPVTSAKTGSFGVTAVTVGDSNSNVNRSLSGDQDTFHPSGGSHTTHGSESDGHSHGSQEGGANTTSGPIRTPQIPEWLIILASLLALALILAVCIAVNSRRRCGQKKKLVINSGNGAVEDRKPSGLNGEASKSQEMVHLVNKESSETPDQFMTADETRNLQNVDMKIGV

For Biotin-KKGFYKKKQCRPSKGRKRGFCWAVD (cysteine pairing not given here) [immX3AVD peptide (N-terminally biotinylated, bound to streptavidin-coated plate)], the CD44 immunoreactivity (AU) (AU (immX3AVD + 1.5 ug HMW-HA = 100)) turned out to be 103 in experiment [1]; 103 in experiment [2]; 100 in experiment [3]; 13.2 in experiment [4]; 19.6 in experiment [5]; 105 in experiment [6]. Besides, the CD44 immunoreactivity (AU) (AU (immX3AVD + 1.5 ug HMW-HA = 100)) in experiment [7] stood at 100; in experiment [8], 101.
